Assay [1] relates to inner retina (INL, IPL, retinal ganglion cell layer). Nature of the assay: Transient retinal ischemia-reperfusion injury with intravitreous injection; morphometric analysis of inner retina. The assay is classed as in vivo, C57/B16 mice. Set-up: thickness of the INL compared with non-ischemia control / thickness of the IPL compared with non-ischemia control / surviving cells in the RGC layer compared with non-ischemia control: concentration or dose not given beside the values. The following applies: for surviving cells in the RGC layer compared with non-ischemia control / thickness of the INL compared with non-ischemia control / thickness of the IPL compared with non-ischemia control: single intravitreous injection immediately after ischemia. As to the method: Induction of transient retinal ischemia in C57/B16 mice: Animal experiments were conducted in accordance with ARVO guidelines and were approved by the Animal Care and Use Committee of Yale University School of Medicine. Transient retinal ischemia was induced in one eye and the contralateral eye served as control. During the operation and recovery period, animals were placed on water heating pads at 37° C. […] Briefly, animals were anesthetized by i.p. injection of a mixture of 100 mg/kg Ketamine+10 mg/kg Xylazine. […] The anterior chambers were cannulated in fully anesthetized animals with a 30-gauge infusion needle connected by PE10 polyethylene tubing and IV set to a physiological saline reservoir. The intraocular pressure (IOP) of the cannulated eye was raised to 120 mmHg for 60 minutes by elevating the saline reservoir. Retinal ischemia was confirmed by direct microscopic observation of whitening of the fundus. The reperfusion was confirmed visually when needle was withdrawn from the anterior chamber. One group of animals was treated with Vetropolycin® ophthalmic ointment (Pharmaderm, Melville, N. Y.) on the ischemic eyes and allowed to recover for 24 hours, 48 hours, 7 days and 14 days before sacrifice. Other groups were kept for intravitreous injections of the PEDF and PEDF peptides.
Intravitreous injection of PEDF, PEDF peptides and encapsulated PEDF peptide: One group of animals remained uninjected to monitor ischemic damage. All other groups received intravitreal injections, which were performed under an ophthalmic microscope. […] Intravitreous injection was performed with 30-gauge beveled needle attached to PE10 polyethylene tubing and a 10 μl syringe (Hamilton, Reno, Nev.). The injections were performed through the sclera, approximately 1 mm behind the limbus. The needle remained in the vitreous cavity for 30 seconds after injection then gently withdrawn. Control groups were injected with 1 μl PBS, 1 μl control peptide (1 μg/μl), or blank nanospheres (0.1 mg/μl). […] Vetropolycin® ointment was applied to the injected eyes and animals were allowed to recover for 48 hours or 7 days before sacrifice.
Preparation of retinal tissue: at designated time points, mice were sacrificed by carbon dioxide inhalation followed by, in some cases, cervical dislocation. The eyes were enucleated, fixed in 4% paraformaldehyde for 24 hours, washed with PBS and embedded in paraffin. Five (5) μm thick sections that included the optic nerve were collected. Sections were processed for TUNEL, immunocytochemistry, or histochemical staining with hematoxylin and eosin (Surgipath, Ltd, Richmond, Ill.) using standard methods.
Morphologic and Morphometric Analysis: For each eye, three sections, which included the optic disk and were spaced at least 20 μm apart, were used for morphological analysis. The fields analyzed were 4×250 μm zones sampled from all retinal eccentricities. These zones were 500 μm away from the edge of optic disk or the ora serrata. The average measurement of these 4 zones was used for statistical analysis. The mean thickness of inner nuclear layer (INL) and inner plexiform layer (IPL) was measured using Axiovision3.1 software (Carl Zeiss MicroImaging, Inc., Thornwood, N.Y.). Total surviving cells in the retinal ganglion cell layer at the same locations were counted using light microscopy.
Statistical analysis: Twelve fields per retina were analyzed for each treatment, and a total of 72 fields were used. For statistical analysis, one-way analysis of variance (ANOVA) and Fisher tests were performed; p<0.05 was taken as significant. Data are presented as means and standard deviations.

Assay [2] concerns the target VEGF receptor KDR (VEGFR2) (Homo sapiens, UniProt P35968). Briefly: ELISA binding to VEGF receptor KDR. Background: An ELISA detects its analyte on a solid surface through an enzyme-linked reagent.
The target in the next assay is VEGFR1 (Homo sapiens, UniProt P17948). Nature of the assay: VEGFR1 binding. The following applies: compared to PEDF purified from human plasma or recombinant non-modified human PEDF.
Sequence of VEGFR1 (P17948 27-1338, species assumed): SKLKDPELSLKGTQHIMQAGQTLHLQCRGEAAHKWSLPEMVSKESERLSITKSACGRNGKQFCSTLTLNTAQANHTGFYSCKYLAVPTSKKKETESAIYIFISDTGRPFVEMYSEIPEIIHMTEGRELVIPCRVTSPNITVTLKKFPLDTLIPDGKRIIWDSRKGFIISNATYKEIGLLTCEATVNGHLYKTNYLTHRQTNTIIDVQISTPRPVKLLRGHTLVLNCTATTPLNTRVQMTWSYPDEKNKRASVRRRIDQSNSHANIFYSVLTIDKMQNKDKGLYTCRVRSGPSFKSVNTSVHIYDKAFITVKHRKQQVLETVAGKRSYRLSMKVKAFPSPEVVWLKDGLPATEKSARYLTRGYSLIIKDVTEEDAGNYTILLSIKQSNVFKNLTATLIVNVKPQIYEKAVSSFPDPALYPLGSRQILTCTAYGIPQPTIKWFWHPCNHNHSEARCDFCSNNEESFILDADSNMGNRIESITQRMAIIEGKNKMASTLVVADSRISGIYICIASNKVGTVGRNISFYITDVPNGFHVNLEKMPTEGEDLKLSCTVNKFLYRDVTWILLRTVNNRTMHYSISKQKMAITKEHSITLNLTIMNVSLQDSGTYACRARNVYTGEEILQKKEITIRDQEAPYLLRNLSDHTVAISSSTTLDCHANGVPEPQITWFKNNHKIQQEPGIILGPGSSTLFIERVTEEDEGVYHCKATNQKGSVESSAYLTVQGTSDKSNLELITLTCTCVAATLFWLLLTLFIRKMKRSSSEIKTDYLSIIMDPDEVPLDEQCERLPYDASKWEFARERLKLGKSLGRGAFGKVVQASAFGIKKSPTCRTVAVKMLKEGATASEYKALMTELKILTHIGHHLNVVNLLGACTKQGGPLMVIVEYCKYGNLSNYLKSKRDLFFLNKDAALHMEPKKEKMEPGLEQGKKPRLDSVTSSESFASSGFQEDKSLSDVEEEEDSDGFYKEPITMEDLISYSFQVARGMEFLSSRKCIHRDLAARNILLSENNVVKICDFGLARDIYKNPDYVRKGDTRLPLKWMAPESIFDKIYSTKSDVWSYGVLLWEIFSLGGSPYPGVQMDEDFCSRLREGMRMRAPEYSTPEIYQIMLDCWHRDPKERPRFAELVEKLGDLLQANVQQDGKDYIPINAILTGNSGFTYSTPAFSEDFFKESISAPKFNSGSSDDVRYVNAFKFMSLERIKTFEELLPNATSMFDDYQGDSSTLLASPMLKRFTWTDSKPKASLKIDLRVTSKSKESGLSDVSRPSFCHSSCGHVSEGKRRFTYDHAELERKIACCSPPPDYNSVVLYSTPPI
The target in a further assay is VEGFR2 (Homo sapiens, UniProt P35968). Briefly: Block of VEGFR2 phosphorylation. As to conditions: compared to recombinant, non-modified human PEDF.
Sequence of VEGFR2 (P35968 20-1356, species assumed): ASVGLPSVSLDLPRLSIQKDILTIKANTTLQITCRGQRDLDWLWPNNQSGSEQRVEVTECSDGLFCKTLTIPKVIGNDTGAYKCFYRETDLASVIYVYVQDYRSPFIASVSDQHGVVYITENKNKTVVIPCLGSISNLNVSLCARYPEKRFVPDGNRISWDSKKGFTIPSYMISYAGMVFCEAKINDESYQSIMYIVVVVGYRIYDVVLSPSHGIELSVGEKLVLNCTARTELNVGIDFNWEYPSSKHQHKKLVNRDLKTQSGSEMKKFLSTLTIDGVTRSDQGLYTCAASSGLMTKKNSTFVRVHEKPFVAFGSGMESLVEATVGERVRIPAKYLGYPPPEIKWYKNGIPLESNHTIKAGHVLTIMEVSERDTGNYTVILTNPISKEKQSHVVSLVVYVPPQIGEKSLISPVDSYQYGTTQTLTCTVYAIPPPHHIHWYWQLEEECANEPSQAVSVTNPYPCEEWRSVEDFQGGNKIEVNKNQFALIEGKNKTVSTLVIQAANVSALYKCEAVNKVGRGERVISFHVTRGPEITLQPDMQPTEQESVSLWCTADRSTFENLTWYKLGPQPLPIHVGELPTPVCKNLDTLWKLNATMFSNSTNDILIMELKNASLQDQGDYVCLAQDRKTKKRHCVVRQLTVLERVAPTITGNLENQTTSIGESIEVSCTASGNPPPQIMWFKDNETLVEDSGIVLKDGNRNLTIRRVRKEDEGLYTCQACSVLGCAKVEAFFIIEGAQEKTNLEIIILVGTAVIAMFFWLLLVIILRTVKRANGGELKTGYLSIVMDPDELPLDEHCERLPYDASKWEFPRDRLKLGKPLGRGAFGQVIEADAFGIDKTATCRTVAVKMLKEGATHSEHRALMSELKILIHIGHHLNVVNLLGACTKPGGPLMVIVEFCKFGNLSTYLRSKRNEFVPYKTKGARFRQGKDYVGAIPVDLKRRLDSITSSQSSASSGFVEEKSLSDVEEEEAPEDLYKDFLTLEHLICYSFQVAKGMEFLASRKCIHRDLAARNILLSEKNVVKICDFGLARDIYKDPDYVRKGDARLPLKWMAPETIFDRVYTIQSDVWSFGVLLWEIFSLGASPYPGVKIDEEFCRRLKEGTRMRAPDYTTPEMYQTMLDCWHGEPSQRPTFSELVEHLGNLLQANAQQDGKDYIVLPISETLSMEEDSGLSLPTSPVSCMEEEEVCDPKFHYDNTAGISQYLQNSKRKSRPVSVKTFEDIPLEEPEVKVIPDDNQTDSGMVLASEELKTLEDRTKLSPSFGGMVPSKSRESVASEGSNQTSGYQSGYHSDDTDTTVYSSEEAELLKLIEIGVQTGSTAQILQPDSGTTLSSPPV
A further assay deals with VEGF. Nature of the assay: Block of VEGF mitogenic signaling. As to conditions: compared to recombinant, non-modified human PEDF.
In the next assay the test system is GFAP. Briefly: GFAP immunocytochemical labeling of Müller glial cells after transient ischemia. Format: in vivo, C57/B16 mice. As to the method:
Induction of transient retinal ischemia in C57/B16 mice: Animal experiments were conducted in accordance with ARVO guidelines and were approved by the Animal Care and Use Committee of Yale University School of Medicine. Transient retinal ischemia was induced in one eye and the contralateral eye served as control. During the operation and recovery period, animals were placed on water heating pads at 37° C. Eighty-one 10-14 weeks male C57/B16 mice (Charles River Laboratories, Wilmington, Mass., weighing […]) were used in this experiment. To induce retinal ischemia, a previously established technique with some modifications was used (Hughes, 1991, Exp Eye Res. 53(5):573-582; Buchi et al., 1991, Opthalmologica 203 (3): 138-147). Briefly, animals were anesthetized by i.p. injection of a mixture of 100 mg/kg Ketamine+10 mg/kg Xylazine. The corneas were topically anesthetized with 0.5% proparacaine hydrochloride (Bausch & Lomb Pharmaceuticals, Inc., Tampa, Fla.), and the pupils dilated with 2.5% phenylephrine (Bausch & Lomb Pharmaceuticals, Inc., Tampa, Fla.). The anterior chambers were cannulated in fully anesthetized animals with a 30-gauge infusion needle connected by PE10 polyethylene tubing and IV set to a physiological saline reservoir. The intraocular pressure (IOP) of the cannulated eye was raised to 120 mmHg for 60 minutes by elevating the saline reservoir. Retinal ischemia was confirmed by direct microscopic observation of whitening of the fundus. The reperfusion was confirmed visually when needle was withdrawn from the anterior chamber. One group of animals was treated with Vetropolycin® ophthalmic ointment (Pharmaderm, Melville, N. Y.) on the ischemic eyes and allowed to recover for 24 hours, 48 hours, 7 days and 14 days before sacrifice. Other groups were kept for intravitreous injections of the PEDF and PEDF peptides.
Intravitreous injection of PEDF, PEDF peptides and encapsulated PEDF peptide: One group of animals remained uninjected to monitor ischemic damage. All other groups received intravitreal injections, which were performed under an ophthalmic microscope. Experimental groups received 1 μl native PEDF protein (1 μg/μl), PEDF82-121 peptide (1 μg/μl), PEDF76-95 peptide (1 μg/μl), PEDF91-110 peptide (1 μg/μl), PEDF106-125 peptide (1 μg/μl) or PLGA PEDF82-121 nanospheres (0.1 mg/μl, less than 1.6 μg PEDF82-121 peptide when fully released) immediately after the end of the transient ischemia. Intravitreous injection was performed with 30-gauge beveled needle attached to PE10 polyethylene tubing and a 10 μl syringe (Hamilton, Reno, Nev.). The injections were performed through the sclera, approximately 1 mm behind the limbus. The needle remained in the vitreous cavity for 30 seconds after injection then gently withdrawn. […]

[3] abbreviates: 7 days post ischemia, free single bolus or nanospheres.
The mark [4] stands for this setting: 48 hours after ischemia reperfusion.

Sequence of VEGF receptor KDR (VEGFR2) (P35968 20-1356, species assumed): as above

As for “PEDF76-95: residues 76 to 95 of human PEDF, TNVLLSPLSVATALSALSLG (SEQ ID NO: 5) ((1)..(20) Residues 76-95 of human PEDF; listed as Homo sapiens)”, in assay [1] (seven days after ischemic injury), the “protection of the IPL (in words)” value is listed as “protected”. For the same molecule, the “protection of the INL (in words)” value in assay [1] (seven days after ischemic injury, versus control peptide PEDF136-155) is “protected the INL significantly”.

Consider “PEDF91-110: residues 91 to 110 of human PEDF, ALSLGAEQRTESIIHRALYY (SEQ ID NO: 7) ((1)..(20) Residues 91-110 of human PEDF; listed as Homo sapiens)”, for which the “protection of the retinal ganglion cell layer (in words)” value in assay [1] (setting [3]) is on record as “significantly protecting”. Besides, the “RGCs protected from dying after ischemic injury” value in assay [1] (after ischemic injury) is “about 85%”.

Consider “PEDF106-125: residues 106 to 125 of human PEDF, RALYYDLISSPDIHGTYKEL (SEQ ID NO: 9) ((1)..(20) Residues 106-125 of human PEDF; listed as Homo sapiens)”, for which the “protection of the retinal ganglion cell layer (in words)” value in assay [1] (setting [3]) is recorded as “significantly protecting”.

B1: coPEDF: bacterially expressed codon-optimized fusion protein: thioredoxin, His6 tag, thrombin site and S-Tag fused N-terminally to human PEDF (protein)
chain: QNPASPPEEGSPDPDSTGALVEEEDPFFKVPVNKLAAAVSNFGYDLYRVRSSMSPTTNVLLSPLSVATALSALSLGADERTESIIHRALYYDLISSPDIHGTYKELLDTVTAPQKNLKSASRIVFEKKLRIKSSFVAPLEKSYGTRPRVLTGNPRLDLQEINNWVQAQMKGKLARSTKEIPDEISILLLGVAHFKGQWVTKFDSRKTSLEDFYLDEERTVRVPMMSDPKAVLRYGLDSDLSCKIAQLPLTGSMSIIFFLPLKVTQNLTLIEESLTSEFIHDIDRELKTVQAVLTVPKLKLSYEGEVTKSLQEMKLQSLFDSPDFSKITGKPIKLTQVEHRAGFEWNEDGAGTTPSPGLQPAHLTFPLDYHLNQPFIFVLRDTDTGALLFIGKILDPRGP
modifications: left off: large carriers; small tags and cut ends
notes: bacterially expressed codon-optimized fusion protein: thioredoxin, His6 tag, thrombin site and S-Tag fused N-terminally to human PEDF
As to B1, in assay [2], the “binding to VEGF receptor KDR (VEGFR2)” value was “improves binding”. Also, the VEGFR1 binding result with VEGFR1 is listed as “increased VEGFR1 binding”. Also, the “block of VEGFR2 phosphorylation” value in the assay with VEGFR2 is listed as “greater effect”. Further, in the assay with VEGF, the “block of VEGF mitogenic signaling” value was “greater effect”.

B2: PEDF protein: full length pigment epithelium-derived factor, a 50 kD protein of the serpin family (protein, listed as Homo sapiens)
chain: MQALVLLLCIGALLGHSSCQNPASPPEEGSPDPDSTGALVEEEDPFFKVPVNKLAAAVSNFGYDLYRVRSSMSPTTNVLLSPLSVATALSALSLGADERTESIIHRALYYDLISSPDIHGTYKELLDTVTAPQKNLKSASRIVFEKKLRIKSSFVAPLEKSYGTRPRVLTGNPRLDLQEINNWVQAQMKGKLARSTKEIPDEISILLLGVAHFKGQWVTKFDSRKTSLEDFYLDEERTVRVPMMSDPKAVLRYGLDSDLSCKIAQLPLTGSMSIIFFLPLKVTQNLTLIEESLTSEFIHDIDRELKTVQAVLTVPKLKLSYEGEVTKSLQEMKLQSLFDSPDFSKITGKPIKLTQVEHRAGFEWNEDGAGTTPSPGLQPAHLTFPLDYHLNQPFIFVLRDTDTGALLFIGKILDPRGP
Regarding B2, in assay [1] (setting [4]), the “surviving cells in the RGC layer compared with non-ischemia control” value is recorded as 85.4%, the “thickness of the INL compared with non-ischemia control” value is 100% and the “thickness of the IPL compared with non-ischemia control” value came out at 86.6%. The “protection of the retinal ganglion cell layer (in words)” value in assay [1] (48 hours post ischemia, versus PBS or PEDF136-155) was “significantly reduced cell death”. For the same molecule, in assay [1] (7 days after injury), the “surviving cells in the RGC layer compared with non-ischemia control” value is on record as 87.4%, the “thickness of the INL compared with non-ischemia control” value worked out at 82.5% and the “thickness of the IPL compared with non-ischemia control” value was determined as 78.2%. In addition, in assay [1] (setting [3]), the “protection of the retinal ganglion cell layer (in words)” value is “significantly reduced cell death”. For the same molecule, the “IPL thickness after ischemic injury (in words)” value in assay [1] (compared to PBS injected controls, time not stated) is “prevented the thinning of the IPL”. Moreover, the “GFAP labeling compared to PBS injections” value in the assay with GFAP (48 hours after transient ischemia) is reported as “less GFAP labeling”. Besides, the GFAP staining result in the assay with GFAP (7 days after injury) was “very similar staining”.

The record behind these values is patent US20090069241A1, “Compositions and Methods for Use of Pigment Epithelial Derived Factor (PEDF) Peptide Fragments” (Yale University, priority 2006, published 2009).
